In experiment [1] the target is unphosphorylated smooth muscle myosin (chicken gizzard) (chicken) (UniProt P10587). The experiment in a line: co-sedimentation.
Experiment [2] addresses phosphorylated smooth muscle myosin (chicken gizzard) (chicken) (UniProt P10587). Put plainly: co-sedimentation.

The record followed here is PMC2169363.

In general, EC50 refers to the concentration needed to bring the measured effect to its halfway point. Low values mean greater potency, high ones weaker potency. Regarding “human p32 (recombinant) (from UniProt Q07021 74-282) (natural protein)”, the EC50 in experiment [1] is 1800 nM.
Turning to “recombinant 38k protein, full-length (1-207) (natural protein)”, the amount recovered in the precipitate with 1.1 μM myosin (4.0 μM added) in experiment [1] was 1 µM.
With “38k protein (native, purified from chicken gizzard smooth muscle) (natural protein)”, the 50% effective concentration (EC50) in experiment [2] came to 1400 nM; in experiment [1], 1700 nM.
